Reference: patent US20220153853A1 (JIANGSU HENGRUI MEDICINE, published 2022)
Residue numbers refer to the chain shown, from its start.

B1: ch1805 (antibody, human IgG4 S228P, kappa, F234A L235A, V domains shown)
VH: EVQLQQSGPELVKPGASVKIPCKTSGYTFTDYNMDWVKQSHGRSLEWIGSIDPDNGGTIYNQKFKGKATLTVDKSSSTAYMELRSLTSEDTAVYYCTRDYYGSSSWFAYWGQGTLVTVSA
VL: DVVMTQSPATLSVTPGDRVSLSCRASQSISDYLHWYQQKSHESPRLLIKYASQSISGIPSRFSGSGSGSDFTLSINSVEPEDVGVYYCQNGHSFPYTFGGGTKLEIKR
notes: IgG4-AA / kappa chimeric antibody; also called chimeric antibody of clone 1805
B2: ch1808 (antibody, human IgG4 S228P, kappa, F234A L235A, V domains shown)
VH: QVQLQQSGAELARPGASVKLSCKASGDTFTTNGISWVKQRIGQGLEWIGEIYPRSGNTYYNENFKGKATLTADKSSTTAYMELRRLTSEDSAVYFCARSITSVIGADYFDYWGQGTTLTVSS
VL: DIQMTQTTSSLSASLGDRVTISCRASQDISNYLNWYQKKPDGTVKLLIYYSSTLHSGVPSRFSGSGSGTDYSLTISNLEQEDIATYFCQQGNTFPWTFGGGTKLEIKR
notes: IgG4-AA / kappa chimeric antibody
B3: hu1803-9 (antibody, human IgG4 S228P, kappa, F234A L235A, V domains shown)
VH: EVQLVQSGAEVKKPGASVKVSCKASGYTFTDYWIEWVRQAPGQGLEWMGEILPGSTYTNYNEKFKGRVTMTRDTSTSTVYMELSSLRSEDTAVYYCARGLSTLMAVDYFDYWGQGTTVTVSS
VL: DIQMTQSPSSLSASVGDRVTITCRASQDISNYLNWYQQKPGKAVKLLIYYSSTLHSGVPSRFSGSGSGTDYTLTISSLQPEDFATYYCQQTNIFPWTFGGGTKVEIKR
notes: IgG4-AA / kappa humanized antibody; also called hu1803_VH.1 + hu1803_VL.1B; GCGR monoclonal antibody
B4: hu1810-12 (antibody, human IgG4 S228P, kappa, F234A L235A, V domains shown)
VH: QVQLVQSGAEVKKPGSSVKVSCKASGGTFSNYAISWVKQAPGQGLEWIGEIYPTSGNTYYNEKFKGKATLTADRSTSTMYMELSSLRSEDTAVYYCASGVITTVVSTDYFDYWGQGTLVTVSS
VL: B3 VL with Q27L, Q38L, S51T, P59S, D70E, T91G, I93M, F94V, W96Y
notes: IgG4-AA / kappa humanized antibody; also called hu1810_VH.1C + hu1810_VL.1B
B5: ch1817 (antibody, human IgG4 S228P, kappa, F234A L235A, V domains shown)
VH: EVQLVESGGDLVQPGRSMKLSCAASGFTFSNYYMAWVRQAPTKGLEWVASISTGGVNTYYRDSVKGRFTISRDNAKNNLYLQMDSLRSEETATYYCARHTTADYFYGIYFALDAWGQGTSVTVSS
VL: QFTLTQPKSVSGSLRSTITIPCERSSGDIGDSYVNWYQQHLGRPPLNVIYADVQRPSEVSDRFSGSIDSSSNSASLTITNLQMDDEADYFCQSYDTNIDIIFGGGTKLTVLR
notes: as for B2
B6: ch1822 (antibody, human IgG4 S228P, kappa, F234A L235A, V domains shown)
VH: B5 VH with Q3R, L11F, M18V, A49G, K76E, N77S, N78T, A102P, F105H, L112M
VL: B5 VL with F2V, D31E, L46I, V53D, M83V, T96S, N97S, I101F
notes: as for B2
B7: ch1810 (antibody, human IgG4 S228P, kappa, F234A L235A, V domains shown)
VH: QVQLQQSGTELARPGTSVTLSCKASGYTFTNYAISWVKQRTGQGLEWIGEIYPTSGNTYYNEKFKGKATLTADRSSKTMYMELRSLTSVDSAVYFCASGVITTVVSTDYFDYWGQGSPLTVSS
VL: DIQMTQIPSSLSVSLGDRVTISCRASLDISNYLNWYQLKPDGTVKLLIYYTSTLHSGVSSRFSGSGSGTEYSLTISNLEQEDIATYFCQQGNMVPYTFGGGTKLEIKR
B8: ch1803 (antibody, human IgG4 S228P, kappa, F234A L235A, V domains shown)
VH: QFQLHQSGAELVKPGASVKLSCKATGYTFTDYWIEWVKQRPGHGLEWIGEILPGSTYTNYNEKFKGRATFTAEPSSSSAYMQLSGLTTEDSAIYYCSRGLSTLMAVDYFDYWGQGTTLTVSS
VL: B2 VL with S22N, K38Q, N77H, G91T, T93I, K107R, R108T
notes: as for B2
B9: hu1810-11 (antibody, human IgG4 S228P, kappa, F234A L235A, V domains shown)
VH: B4 VH with K38R, K67R
VL: B3 VL with Q27L, Q38L, S51T, P59S, D70E, T91G, I93M, F94V, W96Y

Biological target: T1, human GCGR (full-length glucagon receptor of 477 amino acids) (human, UniProt P47871 26-477)
T1 construct: Expressed from a full-length plasmid on CHO / CHO-K1 cells; also called hGCGR
T1 sequence (P47871 26-477 limits assumed): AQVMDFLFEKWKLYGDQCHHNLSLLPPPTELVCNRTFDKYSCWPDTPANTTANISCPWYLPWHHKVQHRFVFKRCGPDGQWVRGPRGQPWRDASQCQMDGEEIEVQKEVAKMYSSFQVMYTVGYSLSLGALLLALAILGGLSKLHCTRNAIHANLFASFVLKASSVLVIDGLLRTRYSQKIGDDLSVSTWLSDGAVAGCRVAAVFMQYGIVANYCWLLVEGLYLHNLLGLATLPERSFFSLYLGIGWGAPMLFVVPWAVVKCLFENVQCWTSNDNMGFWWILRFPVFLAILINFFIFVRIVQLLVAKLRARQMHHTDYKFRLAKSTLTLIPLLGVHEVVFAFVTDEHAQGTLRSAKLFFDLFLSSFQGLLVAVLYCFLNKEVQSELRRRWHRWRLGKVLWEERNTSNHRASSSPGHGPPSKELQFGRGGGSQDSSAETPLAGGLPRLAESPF
Test: competitive cell ELISA on GCGR-overexpressing CHO cells, biotin-labeled against unlabeled antibody; competitor hu1810-12
Source text: (§1) The GCGR epitopes bound by GCGR antibodies were classified by ELISA assay, in which the competitive binding of the biotin-labeled antibodies with different concentrations of the standard antibody to GCGR-overexpressing CHO cells was detected. The method for preparing the cell plate was the same as that of Test Example 1. The following specific procedures are as follows: The antibody was labelled according to the biotin labeling kit instructions (Dojindo
(§2) Molecular Technologies, Inc. LK03). The unlabeled test antibody was diluted to a range of concentrations with sample dilution solution in a 96-well cell plate, 50 μl/well, and incubated at 37° C. for 2 hours. After the incubation was finished, the plate was washed 3 times with PBST, 50 μl/well of biotin-labeled antibody diluted with sample dilution solution was added, at a concentration of 0.1 μg/ml, incubated at 37° C. for 2 hours, the plate was washed 3 times with PBST, and HRP-labeled goat-anti-human secondary antibody (JacksoW ImmuWo Research, Cat Wo. 109-035-003) was added, and incubated at 37° C. for 1 hour. The plate was washed 3 times with PBST, 50 μl/well of TMB chromogenic substrate (KPL, Cat No. 52-00-03) was added, incubated at room temperature for 10 min, and 50 μl/well of 1M H₂SO₄ was added to stop the reaction. The absorbance value was read by a microplate reader (Thermo scientific Multiskan MK3) at a wavelength of 450 nm, and the data was analyzed with GraphPad Prism 5.

competition efficiency IC % [%] | Binder
100 | B1
54.3 | B2
100 | B3
100 | B4

Biological target: T1, human GCGR (full-length glucagon …)
Test: competitive cell ELISA on GCGR-overexpressing CHO cells, biotin-labeled against unlabeled antibody; competitor hu1803-9
Source text: as §1, §2

competition efficiency IC % [%] | Binder
100 | B1
46.6 | B2
100 | B3
100 | B4

Biological target: T2, Cynomolgus monkey GCGR (cynomolgus monkey)
T2 construct: whole, on cells; also called cynomolgus GCGR
Test: cell ELISA on fixed CHO cells overexpressing GCGR
Procedure: (§3) The expression levels of GCGR were detected after two weeks of pressure screening, After the GCGR-overexpressing cells were fixed to the bottom of 96-well plate, the antibodies were added and the signal strength was used to determine the binding activity of the antibody to GCGR overexpressing CHO cells. The binding abilities of the antibody to the three species of GCGRs were detected with the same binding assay. As an example, the binding of the GCGR antibodies to human GCGR was detected by an assay specifically described as follows:
(§4) The cells were seeded in a 96-well plate at a density of 0.9-1.0×10⁶/ml, 100 μl/well and cultured overnight. The supernatant was discarded, the plate was washed three times with PBS, 100 μl/well of cell immune fixed solution (Beyotime, Cat No. P0098) was added and fixed for an hour at room temperature, and washed four times with PBS. The liquid was discarded, 200 μl/well blocking solution (5% skim milk (BD skim milk, Cat Wo. 232100) diluted with PBS) was added, and incubated in an incubator at 37° C. for 3 hours for blocking. After the blocking was finished, the blocking solution was discarded, the plate was washed 3 times with PBST buffer (PBS comprising 0.05% tweenW-20, pH7.4), 50 μl/well of various concentrations of each of the test antibodies (antibodies purified from hybridoma, chimeric antibodies or humanized antibodies) diluted with sample dilution solution were added, and incubated in an incubator at 37° C. for 2 hours. After the incubation was finished, the plate was washed 3 times with PBST, 50 μl/well of HRP-labeled goat anti-mouse secondary antibody (JacksoW ImmuWo Research, Cat No. 115-035-003) or goat anti-human secondary antibody (JacksoW ImmuWo Research, Cat Wo. 109-035-003) diluted with sample dilution solution was added, and incubated at 37° C. for 1 hour. The plate was washed 3 times with PBST, 50 μl/well of TMB chromogenic substrate (KPL, Cat Wo. 52-00-03) was added, incubated at room temperature for 10 min, and 50 μl/well of 1M H₂SO4 was added to stop the reaction. The absorbance value was read by a microplate reader (Thermo scientific Multiskan MK3) at a wavelength of 450 nm, and the data was analyzed with GraphPad Prism 5. The binding of GCGR chimeric antibodies to GCGR-overepressing CHO cells was calculated as EC50 value.

EC50 [nM] | Binder
0.297 | B5
0.428 | B6
0.358 | B1
0.248 | B7
0.213 | B8
0.536 | B2

Biological target: T1, human GCGR (full-length glucagon …)
Test: cell ELISA on fixed CHO cells overexpressing GCGR
Procedure: as §3, §4

EC50 [nM] | Binder
0.193 | B5
0.383 | B6
0.297 | B1
0.117 | B7
0.117 | B8
0.677 | B2

Biological target: T3, Mouse GCGR (mouse, UniProt Q61606 27-485)
T3 construct: whole, on cells; also called mouse glucagon receptor
T3 sequence (Q61606 27-485): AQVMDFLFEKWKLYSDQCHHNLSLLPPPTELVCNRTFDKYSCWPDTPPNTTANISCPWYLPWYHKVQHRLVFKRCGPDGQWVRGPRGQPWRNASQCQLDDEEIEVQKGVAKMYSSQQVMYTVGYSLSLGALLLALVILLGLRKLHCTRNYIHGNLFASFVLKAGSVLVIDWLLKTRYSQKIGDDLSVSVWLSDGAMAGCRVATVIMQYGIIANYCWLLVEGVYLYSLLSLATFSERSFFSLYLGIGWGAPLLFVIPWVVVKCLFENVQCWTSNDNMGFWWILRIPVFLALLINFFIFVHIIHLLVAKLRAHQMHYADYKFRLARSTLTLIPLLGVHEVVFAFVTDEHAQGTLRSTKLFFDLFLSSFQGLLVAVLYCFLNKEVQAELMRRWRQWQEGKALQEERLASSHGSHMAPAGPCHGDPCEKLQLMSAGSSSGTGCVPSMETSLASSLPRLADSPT
Test: cell ELISA on fixed CHO cells overexpressing GCGR
Procedure: as §3, §4

EC50 [nM] | Binder
0.164 | B5
0.568 | B6
0.343 | B1
0.442 | B7
0.718 | B8
1.02 | B2

Biological target: T1, human GCGR (full-length glucagon …)
Test: cell-based or functional assay

IC50 [nM] | Imax (%) | Binder
54 | 100 | B3

Biological target: T1, human GCGR (full-length glucagon …)
Test: competitive cell ELISA on GCGR-overexpressing CHO cells, biotin-labeled against unlabeled antibody; competitor ch1808
Source text: as §1, §2

competition efficiency IC % [%] | Binder
100 | B1
100 | B2
100 | B3
100 | B4

Biological target: T1, human GCGR (full-length glucagon …)
Test: cell-based or functional assay
Remark: another data set of the same source

IC50 [nM] | Imax [%] | Binder
59.8 | 83 | B5
62.5 | 59 | B6
95 | 91 | B1
72.5 | 100 | B7
79.3 | 100 | B8
105 | 98 | B2

Biological target: T3, Mouse GCGR
Test: cell-based or functional assay

IC50 [nM] | Imax (%) | Binder
12.8 | 96 | B5
16 | 87 | B6
18 | 100 | B1
24.7 | 93 | B8
26.6 | 100 | B2

Biological target: T2, Cynomolgus monkey GCGR
Test: cell-based or functional assay

IC50 [nM] | Imax (%) | Binder
220 | 100 | B3
886 | 99 | B4

Biological target: T3, Mouse GCGR
Test: cell-based or functional assay
Remark: another data set of the same source

IC50 [nM] | Imax (%) | Binder
11.2 | 100 | B3
17.5 | 97 | B4

Biological target: T1, human GCGR (full-length glucagon …)
Test: cell-based or functional assay
Remark: another data set of the same source

IC50 [nM] | Imax [%] | Binder
78.4 | 100 | B3
91.3 | 99.6 | B9
75.9 | 99.7 | B4
